# From the supplement of paper PMC10567573
# B1: CPN1 (parent)
# chain: RGVRRTASTPTPDDKLFQKLAKVY
# B2: SAT2 (parent)
# chain: IIKKVAEVALDKGCSQFRLAVLDW
# Variants of: B1
# Experiment: protein stability index of a GFP-peptide fusion (GPS, HEK-293T) (PSI 1-6); higher = more stable
# Conditions: c terminus: a fixed tail appended
# 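Note: lentivirally expressed fusions sorted by FACS into six bins by GFP to DsRed ratio, PSI derived from sequencing read proportions per bin multiplied by bin number.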
row,Variant,protein stability index
1,RGVRRTASTPTVDDKLFQKLAKVY,1.68
2,RGVRRTASTPTHDDKLFQKLAKVY,1.94
3,RGVRRTASTPTQDDKLFQKLAKVY,2.05
4,RGVRRTASTPTDDDKLFQKLAKVY,2.37
5,RGVRRTASTPTIDDKLFQKLAKVY,1.89
6,RGVRRTASTPTNDDKLFQKLAKVY,1.98
7,RGVRRTASTPTCDDKLFQKLAKVY,1.65
8,RGVRRTASTPTPDDNLFQKLAKVY,1.7
9,RGVRRTASTPTPDDYLFQKLAKVY,1.63
10,RGVRRTASTPTPDDALFQKLAKVY,1.58
11,RGVRRTASTPTPDDCLFQKLAKVY,1.95
12,RGVRRTASTPTPDDWLFQKLAKVY,1.93
13,RGVRRTASTPTPDDHLFQKLAKVY,1.75
14,RGVRRTASTPTPDDKLFLKLAKVY,1.69
15,RGVRRTASTPTPDDKLFNKLAKVY,1.8
16,RGVRRTASTPTPDDKLFFKLAKVY,1.43
17,RGVRRTASTPTPDDKLFYKLAKVY,1.78
18,RGVRRTASTPTPDDKLFWKLAKVY,1.37
19,RGVRRTASTPTPDDKLFCKLAKVY,2.6
20,SGVRRTASTPTPDDKLFQKLAKVY,2.85
21,DGVRRTASTPTPDDKLFQKLAKVY,2.27
22,NGVRRTASTPTPDDKLFQKLAKVY,2.42
23,YGVRRTASTPTPDDKLFQKLAKVY,2.93
24,AGVRRTASTPTPDDKLFQKLAKVY,1.4
25,RGVQRTASTPTPDDKLFQKLAKVY,1.76
26,RGVYRTASTPTPDDKLFQKLAKVY,1.54

row,Variant,protein stability index
1,RGVVRTASTPTPDDKLFQKLAKVY,2.35
2,RGVSRTASTPTPDDKLFQKLAKVY,2.76
3,RGVARTASTPTPDDKLFQKLAKVY,2.01
4,RGVHRTASTPTPDDKLFQKLAKVY,2.17
5,RGVRRTASTPWPDDKLFQKLAKVY,1.92
6,RGVRRTASTPKPDDKLFQKLAKVY,2.56
7,RGVRRTASTPGPDDKLFQKLAKVY,2.54
8,RGVRRTASTPFPDDKLFQKLAKVY,1.92
9,RGVRRTASTPAPDDKLFQKLAKVY,2.29
10,RGVRRTASTPYPDDKLFQKLAKVY,2.25
11,RGVRRTASKPTPDDKLFQKLAKVY,2.57
12,RGVRRTASNPTPDDKLFQKLAKVY,1.54
13,RGVRRTASMPTPDDKLFQKLAKVY,1.45
14,RGVRRTASSPTPDDKLFQKLAKVY,1.94
15,RGVRRTASTPTPDDKLFQKLPKVY,2.62
16,RGVRRTASTPTPDDKLFQKLWKVY,2.22
17,RGVRRTASTPTPDDKLFQKLMKVY,1.73
18,RGVRRTASTPTPDDKLFQKLRKVY,1.83
19,RGVRRTASTPTPDDKLFQKLCKVY,2.22
20,RGVRRTASTPTPDDKLFQKLVKVY,1.6
21,RGVRRTASTPTPDDKLFQKLHKVY,2.29
22,RGVRRTASTPTPDDKLFQKLTKVY,1.78
23,RGVRRTASTPTPDDKLFQKLFKVY,1.64
24,RGVRRTASTPTPDDKLFQKLQKVY,2.48
25,RGVRRTASTQTPDDKLFQKLAKVY,1.78
26,RGVRRTASTGTPDDKLFQKLAKVY,2.27

row,Variant,protein stability index
1,RGVRRTASTNTPDDKLFQKLAKVY,2.06
2,RGVRRTASTVTPDDKLFQKLAKVY,1.79
3,RGVRRTASTLTPDDKLFQKLAKVY,1.02
4,RGVRRTASTSTPDDKLFQKLAKVY,2.09
5,RGVRRTASTETPDDKLFQKLAKVY,2.81
6,RGVRRTASTATPDDKLFQKLAKVY,2.13
7,RGVRRTASTCTPDDKLFQKLAKVY,2.07
8,RGVRRTASTKTPDDKLFQKLAKVY,1.8
9,RGKRRTASTPTPDDKLFQKLAKVY,1.62
10,RGFRRTASTPTPDDKLFQKLAKVY,2.24
11,RGMRRTASTPTPDDKLFQKLAKVY,1.84
12,RGDRRTASTPTPDDKLFQKLAKVY,2.58
13,RGSRRTASTPTPDDKLFQKLAKVY,1.93
14,RGIRRTASTPTPDDKLFQKLAKVY,2.48
15,RGHRRTASTPTPDDKLFQKLAKVY,2.13
16,RGYRRTASTPTPDDKLFQKLAKVY,2.27
17,RGVRRTASTPTPDDKLPQKLAKVY,2.84
18,RGVRRTASTPTPDDKLGQKLAKVY,3.25
19,RGVRRTASTPTPDDKLRQKLAKVY,3.43
20,RGVRRTASTPTPDDKLIQKLAKVY,2.53
21,RGVRRTASTPTPDDKLWQKLAKVY,2.26
22,RGVRRTASTPTPDDKLYQKLAKVY,2.28
23,RGVRRTASTPTPDDKLNQKLAKVY,2.88
24,RGVRRTASTPTPDDKLMQKLAKVY,3
25,RGVRRTASTPTPDDKLFQKLAKQY,3.44
26,RGVRRTASTPTPDDKLFQKLAKDY,3.02

row,Variant,protein stability index
1,RGVRRTASTPTPDDKLFQKLAKLY,2.18
2,RGVRRTASTPTPDDKLFQKLAKCY,2.58
3,RGVRRTASTPTPDDKLFQKLAKRY,3.84
4,RGVRRTASTPTPDDKLFQKLAKWY,1.92
5,RGVRRTASTPTPDDKLFQKLAKEY,3.84
6,RGVRRTASTPTPDDKLFQKLAKAY,2.45
7,RGVRRTNSTPTPDDKLFQKLAKVY,2.54
8,RGVRRTLSTPTPDDKLFQKLAKVY,1.17
9,RGVRRTMSTPTPDDKLFQKLAKVY,1.62
10,RGVRRTCSTPTPDDKLFQKLAKVY,1.57
11,RGVRRTGSTPTPDDKLFQKLAKVY,2.38
12,RGVRRTVSTPTPDDKLFQKLAKVY,2.75
13,RGVRRTYSTPTPDDKLFQKLAKVY,2
14,RGVRRTRSTPTPDDKLFQKLAKVY,1.71
15,RGVRRTHSTPTPDDKLFQKLAKVY,1.41
16,RGVRRTASTPTPDDKLFQTLAKVY,1.98
17,RGVRRTASTPTPDDKLFQVLAKVY,2.1
18,RGVRRTASTPTPDDKLFQFLAKVY,2.53
19,RGVRRTASTPTPDDKLFQYLAKVY,1.34
20,RGVRRTASTPTPDDKLFQELAKVY,2.54
21,RGVRRTASTPTPDDKLFQWLAKVY,2.21
22,RGVRRTASTPTPDDKLFQPLAKVY,2.93
23,RGVRRTASTPTPDDKLFQGLAKVY,2.21
24,RGVRRTASTPTPNDKLFQKLAKVY,1.89
25,RGVRRTASTPTPSDKLFQKLAKVY,2.02
26,RGVRRTASTPTPADKLFQKLAKVY,1.97

row,Variant,protein stability index
1,RGVRRTASTPTPQDKLFQKLAKVY,1.94
2,RGVRRTASTPTPTDKLFQKLAKVY,1.27
3,RGVRRTASTPTPFDKLFQKLAKVY,1.99
4,RGVRRTASTPTPWDKLFQKLAKVY,1.61
5,RGVRRTASTPTPHDKLFQKLAKVY,2.08
6,RGVRRTASTPTPMDKLFQKLAKVY,2.59
7,RGVRRTASTPTPDCKLFQKLAKVY,1.56
8,RGVRRTASTPTPDVKLFQKLAKVY,2.19
9,RGVRRTASTPTPDNKLFQKLAKVY,1.54
10,RGVRRTASTPTPDFKLFQKLAKVY,1.75
11,RGVRRTASTPTPDWKLFQKLAKVY,1.68
12,RGVRRTASTPTPDKKLFQKLAKVY,2.35
13,RGVRRTADTPTPDDKLFQKLAKVY,2.19
14,RGVRRTAMTPTPDDKLFQKLAKVY,1.44
15,RGVRRTASTPTPDDKDFQKLAKVY,4.21
16,RGVRRTASTPTPDDKIFQKLAKVY,2.61
17,RGVRRTASTPTPDDKSFQKLAKVY,2.95
18,RGVRRTASTPTPDDKCFQKLAKVY,2.52
19,RGVRRTASTPTPDDKNFQKLAKVY,3.32
20,RGVRRTASTPTPDDKYFQKLAKVY,1.92
21,RVVRRTASTPTPDDKLFQKLAKVY,2.84
22,REVRRTASTPTPDDKLFQKLAKVY,2.35
23,RTVRRTASTPTPDDKLFQKLAKVY,2.23
24,RKVRRTASTPTPDDKLFQKLAKVY,2.38
25,RMVRRTASTPTPDDKLFQKLAKVY,1.79
26,RRVRRTASTPTPDDKLFQKLAKVY,1.66

row,Variant,protein stability index
1,RLVRRTASTPTPDDKLFQKLAKVY,1.24
2,RQVRRTASTPTPDDKLFQKLAKVY,1.94
3,RGVRGTASTPTPDDKLFQKLAKVY,1.7
4,RGVRPTASTPTPDDKLFQKLAKVY,2.79
5,RGVRITASTPTPDDKLFQKLAKVY,2.33
6,RGVRKTASTPTPDDKLFQKLAKVY,1.85
7,RGVRATASTPTPDDKLFQKLAKVY,3.41
8,RGVRVTASTPTPDDKLFQKLAKVY,1.87
9,RGVRETASTPTPDDKLFQKLAKVY,2.57
10,RGVRDTASTPTPDDKLFQKLAKVY,2.69
11,RGVRLTASTPTPDDKLFQKLAKVY,2.07
12,RGVRCTASTPTPDDKLFQKLAKVY,3.3
13,RGVRWTASTPTPDDKLFQKLAKVY,2.2
14,RGVRFTASTPTPDDKLFQKLAKVY,1.57
15,RGVRRTASTPTPDDKLFQKDAKVY,4.06
16,RGVRRTASTPTPDDKLFQKHAKVY,3.22
17,RGVRRTASTPTPDDKLFQKKAKVY,3.68
18,RGVRRTASTPTPDDKLFQKQAKVY,3.17
19,RGVRRTASTPTPDDKLFQKGAKVY,3.86
20,RGVRRTASTPTPDDKLFQKNAKVY,3.48
21,RGVRRTASTPTPDDKLFQKWAKVY,2.58
22,RGVRRMASTPTPDDKLFQKLAKVY,2.02
23,RGVRRPASTPTPDDKLFQKLAKVY,1.23
24,RGVRRSASTPTPDDKLFQKLAKVY,1.97
25,RGVRRLASTPTPDDKLFQKLAKVY,1.73
26,RGVRRRASTPTPDDKLFQKLAKVY,1.99

row,Variant,protein stability index
1,RGVRRYASTPTPDDKLFQKLAKVY,1.59
2,RGVRRDASTPTPDDKLFQKLAKVY,2.93
3,RGVRRHASTPTPDDKLFQKLAKVY,1.49
4,RGVRRNASTPTPDDKLFQKLAKVY,1.56
5,RGVRRKASTPTPDDKLFQKLAKVY,1.61
6,RGVRRTASTPTPDDKLFQKLAKVI,2.6
7,RGVRRTASTPTPDDKLFQKLAKVP,2.72
8,RGVRRTASTPTPDDKLFQKLAKVF,1.95
9,RGVRRTASTPTPDDKLFQKLAKVK,3.95
10,RGVRRTASTPTPDDKLFQKLAKVW,1.98
11,RGVRRTASTPTPDDKLFQKLAKVM,1.66
12,RGVRRTASTPTPDDKLFQKLAKVG,3
13,RGVRRTASTPTPDDKLFQKLAKVH,3.1
14,RGVRRTASTPTPDDKLFQKLAKVR,2.29
15,RGVRRTASTPTPDDKLFQKLALVY,2.73
16,RGVRRTASTPTPDDKLFQKLAEVY,1.87
17,RGVRRTASTPTPDDKLFQKLAHVY,1.98
18,RGVRRTASTPTPDDKLFQKLAIVY,1.45
19,RGVRRTASTPTPDDKLFQKLAGVY,2.82
20,RGVRRTASTPTPDDKLFQKLAAVY,2.19
21,RGVRRTASTPTPDDKLFQKLACVY,1.8
22,RGVRRTASTPTPDDKLFQKLANVY,2.4
23,RGVRRTASTPTPDDKLFQKLASVY,1.93

# Variants of: B2
# Experiment: as above
# Conditions: c terminus: a fixed tail appended
row,Variant,protein stability index
1,IIKKVAEVALDKGCSQFRLAVLDN,2.22
2,IIKKVAEVALDKGCSQFRLAVLDD,1.37
3,IIKKVAEVALDKGCSQFRLAVLDM,2.37
4,IIKKVAEVALDKGCSQFRLAVLDH,1.04
5,IIKKVAEVALDKGCSQFRLAVLDP,1.65
6,IIKKVAEVALDKGCSQFRLAVLDE,2.23
7,IIKKVAEVALDKGCSQFRLAVLDR,1.28
8,IIKKVAEVALDKGCSQFRLAVLDT,2.24
9,IIKKVAEVALDKGCSQFRLAVLDS,3.1
